The target of test [1] is T1, cynomolgus monkey FcγRIIa1 extracellular domain with C-terminal His-tag (cynomolgus monkey).
T1 construct: Expressed in FreeStyle 293 cells and purified; also called cyno FcγRIIa1; cynoFcgRIIa1; not shown: C-terminal His-tag
T1 chain: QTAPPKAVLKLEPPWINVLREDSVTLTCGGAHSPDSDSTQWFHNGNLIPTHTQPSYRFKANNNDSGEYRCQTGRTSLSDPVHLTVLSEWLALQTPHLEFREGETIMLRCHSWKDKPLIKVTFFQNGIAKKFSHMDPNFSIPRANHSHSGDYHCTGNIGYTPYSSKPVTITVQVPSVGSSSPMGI
Put plainly: SPR (Biacore), antibody captured on chip, FcgR extracellular domain as analyte, 25 C. The procedure: (§1) The kinetic analysis of interactions between these antibodies and FcγR was carried out using BIACORE® T200 or BIACORE® 4000 (GE Healthcare). HBS-EP+ (GE Healthcare) was used as the running buffer, and the measurement temperature was set to 25° C. A chip produced by immobilizing Protein A. Protein A/G or mouse anti-human IgG kappa light chain (BD Biosciences) onto a Series S Sensor Chip CM4 or CM5 (GE Healthcare) by the amine-coupling method was used. […] After the measurement, the antibody captured on the chip was washed off by allowing reaction with 10 mM glycine-HCl, pH1.5 and 25 mM NaOH so that the chip was regenerated and used repeatedly. The sensorgrams obtained as measurement results were analyzed by the 1:1 Langmuir binding model using the BIACORE® Evaluation Software to calculate the binding rate constant ka (L/mol/s) and dissociation rate constant kd (l/s), and the dissociation constant KD (mol/L) was calculated from these values. […] Regarding such interactions, KD values were calculated using the following 1:1 binding model described in BIACORE® T100 Software Handbook BR1006-48 Edition AE.
(§2) The resultant variants were expressed using M103202L889-SK1 as light chain and their affinity to human and cynoFcγRs were evaluated (Table 20).

Test [2] concerns the target T2, cynomolgus monkey FcγRIIa3 extracellular domain with C-terminal His-tag (cynomolgus monkey).
T2 construct: Expressed in FreeStyle 293 cells and purified; also called cyno FcγRIIa3; cynoFcgRIIa3; not shown: C-terminal His-tag
T2 chain: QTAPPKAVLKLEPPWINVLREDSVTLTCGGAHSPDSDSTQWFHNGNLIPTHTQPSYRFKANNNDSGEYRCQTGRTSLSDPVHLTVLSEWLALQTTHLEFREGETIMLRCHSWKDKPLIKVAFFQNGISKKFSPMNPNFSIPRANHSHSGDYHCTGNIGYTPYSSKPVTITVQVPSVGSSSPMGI
The description is as above. As for the experimental part: as §1, §2

For test [3], the target named is T3, cynomolgus monkey FcγRIIb extracellular domain with C-terminal His-tag (cynomolgus monkey).
T3 construct: Expressed in FreeStyle 293 cells and purified; also called cyno FcγRIIb; cynoFcγRIIb; not shown: C-terminal His-tag
T3 chain: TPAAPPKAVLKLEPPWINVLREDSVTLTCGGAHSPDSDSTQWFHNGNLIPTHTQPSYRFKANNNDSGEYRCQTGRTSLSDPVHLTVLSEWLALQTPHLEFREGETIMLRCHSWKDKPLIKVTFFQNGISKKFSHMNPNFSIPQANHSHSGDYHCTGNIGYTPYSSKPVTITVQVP
Described as above. The procedure:
as §1, §2

Test [4] has as its target T4, cynomolgus monkey FcγRIIIaS extracellular domain with C-terminal His-tag (cynomolgus monkey, UniProt Q8SPW2 21-206 at identity 1.00)).
T4 construct: Expressed in FreeStyle 293 cells and purified; also called cyno FcγRIIIaS; cynoFcγRIIIaS; not shown: C-terminal His-tag
T4 chain: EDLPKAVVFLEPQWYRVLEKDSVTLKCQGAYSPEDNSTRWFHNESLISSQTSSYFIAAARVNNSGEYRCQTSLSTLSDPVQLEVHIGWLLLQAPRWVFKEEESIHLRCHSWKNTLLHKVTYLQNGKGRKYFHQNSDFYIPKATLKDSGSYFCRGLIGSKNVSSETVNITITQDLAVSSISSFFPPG
Described as above. The procedure: as §1, §2

Test [5] has as its target T5, human FcγRIIaR extracellular domain with C-terminal His-tag (human, UniProt P12318 34-217).
T5 construct: Expressed in FreeStyle 293 cells and purified; also called human FcγRIIa (type R); FcgRIIaR; not shown: C-terminal His-tag
T5 chain: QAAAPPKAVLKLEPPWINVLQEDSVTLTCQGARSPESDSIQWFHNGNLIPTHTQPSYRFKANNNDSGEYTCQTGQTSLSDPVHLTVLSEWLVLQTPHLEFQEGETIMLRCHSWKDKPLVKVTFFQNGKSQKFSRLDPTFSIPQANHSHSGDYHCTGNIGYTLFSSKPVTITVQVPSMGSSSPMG
The test is described as above. As for the experimental part: as §1, §2

The target of test [6] is T6, human FcγRIIb extracellular domain with C-terminal His-tag (human, UniProt P31994 43-217).
T6 construct: Expressed in FreeStyle 293 cells and purified; also called humanFcgRIIb; not shown: C-terminal His-tag
T6 sequence: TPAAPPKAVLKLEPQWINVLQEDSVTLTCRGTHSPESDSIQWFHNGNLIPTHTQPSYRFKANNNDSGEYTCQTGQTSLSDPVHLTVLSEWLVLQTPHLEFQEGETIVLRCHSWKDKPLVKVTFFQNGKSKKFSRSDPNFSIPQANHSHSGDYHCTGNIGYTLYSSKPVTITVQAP
The test is described as above. As for the experimental part: as §1, §2

Test [7] addresses T7, human FcγRIIIaV extracellular domain with C-terminal His-tag (human, UniProt P08637 17-208).
T7 construct: Expressed in FreeStyle 293 cells and purified; also called FcgRIIIaV; not shown: C-terminal His-tag
Described as above. As for the experimental part: as §1, §2

The target of test [8] is T8, cynomolgus monkey FcγRIIa1 extracellular domain, C-terminal His-tag (cynomolgus monkey).
T8 construct: also called cyno FcγRIIa1; cynoFcgRIIa1; not shown: His-tag added to C-terminus
T8 chain: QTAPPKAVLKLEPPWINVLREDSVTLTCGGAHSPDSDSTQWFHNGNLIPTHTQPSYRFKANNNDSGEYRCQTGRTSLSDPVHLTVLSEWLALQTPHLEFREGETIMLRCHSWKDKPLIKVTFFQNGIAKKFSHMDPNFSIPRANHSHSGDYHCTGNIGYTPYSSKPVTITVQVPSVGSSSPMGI
Put plainly: SPR (BIACORE), antibody captured, FcγR analyte. The procedure: as §1
The behavior of interacting molecules according to the 1:1 binding model on BIACORE® can be described by Equation 1: Req=C·R max/(KD+C)+RI, wherein, Req is a plot of steady-state binding levels to analyte concentration. C is concentration, RI is bulk refractive index contribution in the sample, and Rmax is analyte binding capacity of the surface. When this equation is rearranged, KD can be expressed as Equation 2: KD=C·Rmax/(Req−RI)−C. KD can be calculated by substituting the values of Rmax, RI, and C into Equation 1 or Equation 2. From the current measurement conditions, RI=0, C=2 μmol/L can be used.

T7 sequence (P08637 17-208 F176V): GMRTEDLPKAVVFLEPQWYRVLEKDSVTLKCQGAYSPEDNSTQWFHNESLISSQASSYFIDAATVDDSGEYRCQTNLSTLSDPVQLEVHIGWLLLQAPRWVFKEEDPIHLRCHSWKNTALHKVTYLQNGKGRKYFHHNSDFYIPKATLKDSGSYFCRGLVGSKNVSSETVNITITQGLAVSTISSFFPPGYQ

B1: M103205H795-MY171 / M103202L889-SK1 (antibody, human IgG1, kappa)
heavy: QVTLKESGPVLVKPTETLTLTCTVSGIDLSHDDISWVRQAPGKGLEWVGIISYAGSTYYASWAKGRLTISKDTSKNQVVLTMTNMDPVDTATYYCARGVPAYSHGGDLWGQGTLVTVSSASTKGPSVFPLAPSSKSTSGGTAALGCLVKDYFPEPVTVSWNSGALTSGVHTFPAVLQSSGLYSLSSVVTVPSSSLGTQTYICNVNHKPSNTKVDKKVEPKSCDKTHTCPPCPAPELLNGPSVFLFPPKPKDTLMISRTPEVTCVVVDVSEEDPEVKFNWYVDGVEVHNAKTKPREEQYNSTYRVVSVLTVLHQDWLNGKEYKCKVSNKALPAPIEKTISKAKGQPREPQVYTLPPSREEMTKNQVSLTCLVKGFYPSDIAVEWESNGQPENNYKTTPFVLDSDGSFFLYSKLTVDKSRWQQGNVFSCSVMHEALHNHYTQKSLSLSP
light: DIVMTQSPATLSLSPGERATLSCTSSQSVYHANWLSWFQQKPGQPPKLLIYWASTLAYGVPSRFSGSGSGTDFTLTISSLQPEDAATYYCAGGYGGGRYAFGQGTKVEIKRTVAAPSVFIFPPSDEQLKSGTASVVCLLNNFYPREAKVQWKVDNALQSGNSQESVTEQDSKDSTYSLSSTLTLSKADYEKHKVYACEVTHQGLSSPVTKSFNRGEC
notes: Position 396 variant derived from MY052, expressed with M103202L889-SK1 as light chain
In the case of B1, the Kd in test [1] was 2300 nM; in test [2], 92000 nM; in test [3], 980 nM; in test [4], 3500 nM; in test [5], 2100 nM; in test [6], 12000 nM. Besides, the Kd in test [7] stood at 5900 nM.

B2: MS_M103205H795-SG1/M103202L889-SK1 (antibody, human IgG1, kappa)
heavy: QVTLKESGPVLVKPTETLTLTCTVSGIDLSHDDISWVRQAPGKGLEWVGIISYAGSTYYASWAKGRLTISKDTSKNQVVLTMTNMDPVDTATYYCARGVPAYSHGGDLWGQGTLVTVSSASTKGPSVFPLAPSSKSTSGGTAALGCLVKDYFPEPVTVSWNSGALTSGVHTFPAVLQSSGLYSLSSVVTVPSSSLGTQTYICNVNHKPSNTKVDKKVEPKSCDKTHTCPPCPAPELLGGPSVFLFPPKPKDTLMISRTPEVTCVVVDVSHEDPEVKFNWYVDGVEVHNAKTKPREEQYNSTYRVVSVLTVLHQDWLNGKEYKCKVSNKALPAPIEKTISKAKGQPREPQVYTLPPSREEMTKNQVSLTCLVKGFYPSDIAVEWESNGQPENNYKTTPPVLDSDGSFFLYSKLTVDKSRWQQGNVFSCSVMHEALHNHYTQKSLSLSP
light: DIVMTQSPATLSLSPGERATLSCTSSQSVYHANWLSWFQQKPGQPPKLLIYWASTLAYGVPSRFSGSGSGTDFTLTISSLQPEDAATYYCAGGYGGGRYAFGQGTKVEIKRTVAAPSVFIFPPSDEQLKSGTASVVCLLNNFYPREAKVQWKVDNALQSGNSQESVTEQDSKDSTYSLSSTLTLSKADYEKHKVYACEVTHQGLSSPVTKSFNRGEC
notes: Parent antibody with SG1 human heavy chain constant region; also called MS1032LO06-SG1
The molecule B2 displayed a Kd in test [8] of 3200 nM.

B3: M103205H795-MY205 / M103202L889-SK1 (antibody, human IgG1, kappa)
heavy: QVTLKESGPVLVKPTETLTLTCTVSGIDLSHDDISWVRQAPGKGLEWVGIISYAGSTYYASWAKGRLTISKDTSKNQVVLTMTNMDPVDTATYYCARGVPAYSHGGDLWGQGTLVTVSSASTKGPSVFPLAPSSKSTSGGTAALGCLVKDYFPEPVTVSWNSGALTSGVHTFPAVLQSSGLYSLSSVVTVPSSSLGTQTYICNVNHKPSNTKVDKKVEPKSCDKTHTCPPCPAPELLNGPSVFLFPPKPKDTLMISRTPEVTCVVVDVSDEDPEVKFNWYVDGVEVHNAKTKPREELYNSTYRVVSVLTVLHQDWLNGKEYKCKVSNKALPKPIEKTISKAKGQPREPQVYTLPPSREEMTKNQVSLTCLVKGFYPSDIAVEWESNGQPENNYKTTPPVLDSDGSFFLYSKLTVDKSRWQQGNVFSCSVMHEALHNHYTQKSLSLSP
light: DIVMTQSPATLSLSPGERATLSCTSSQSVYHANWLSWFQQKPGQPPKLLIYWASTLAYGVPSRFSGSGSGTDFTLTISSLQPEDAATYYCAGGYGGGRYAFGQGTKVEIKRTVAAPSVFIFPPSDEQLKSGTASVVCLLNNFYPREAKVQWKVDNALQSGNSQESVTEQDSKDSTYSLSSTLTLSKADYEKHKVYACEVTHQGLSSPVTKSFNRGEC
notes: CH with G236N/H268D/Q295L/A330K against SG1 (EU numbering); also called MS1032LO06-MY205
Consider B3, for which the Kd in test [8] is 900 nM.

B4: M103205H795-MY201 / M103202L889-SK1 (antibody, human IgG1, kappa)
heavy: QVTLKESGPVLVKPTETLTLTCTVSGIDLSHDDISWVRQAPGKGLEWVGIISYAGSTYYASWAKGRLTISKDTSKNQVVLTMTNMDPVDTATYYCARGVPAYSHGGDLWGQGTLVTVSSASTKGPSVFPLAPSSKSTSGGTAALGCLVKDYFPEPVTVSWNSGALTSGVHTFPAVLQSSGLYSLSSVVTVPSSSLGTQTYICNVNHKPSNTKVDKKVEPKSCDKTHTCPPCPAPELLNGPSVFLFPPKPKDTLMISRTPEVTCVVVDVSDEDPEVKFNWYVDGVEVHNAKTKPREEQYNSTYRVVSVLTVLHQDWLNGKEYKCKVSNKALPKPIEKTISKAKGQPREPQVYTLPPSREEMTKNQVSLTCLVKGFYPSDIAVEWESNGQPENNYKTTPPVLDSDGSFFLYSKLTVDKSRWQQGNVFSCSVMHEALHNHYTQKSLSLSP
light: DIVMTQSPATLSLSPGERATLSCTSSQSVYHANWLSWFQQKPGQPPKLLIYWASTLAYGVPSRFSGSGSGTDFTLTISSLQPEDAATYYCAGGYGGGRYAFGQGTKVEIKRTVAAPSVFIFPPSDEQLKSGTASVVCLLNNFYPREAKVQWKVDNALQSGNSQESVTEQDSKDSTYSLSSTLTLSKADYEKHKVYACEVTHQGLSSPVTKSFNRGEC
notes: CH with G236N/H268D/A330K against SG1 (EU numbering); also called MS1032LO06-MY201
Molecule B4 displayed a Kd in test [8] of 1400 nM.

B5: M103205H795-MY101 / M103202L889-SK1 (antibody, human IgG1, kappa)
heavy: QVTLKESGPVLVKPTETLTLTCTVSGIDLSHDDISWVRQAPGKGLEWVGIISYAGSTYYASWAKGRLTISKDTSKNQVVLTMTNMDPVDTATYYCARGVPAYSHGGDLWGQGTLVTVSSASTKGPSVFPLAPSSKSTSGGTAALGCLVKDYFPEPVTVSWNSGALTSGVHTFPAVLQSSGLYSLSSVVTVPSSSLGTQTYICNVNHKPSNTKVDKKVEPKSCDKTHTCPPCPAPELLNGPSVFLFPPKPKDTLMISRTPEVTCVVVDVSEEDPEVKFNWYVDGVEVHNAKTKPREEQYNSTYRVVSVLTVLHQDWLNGKEYKCKVSNKALPKPIEKTISKAKGQPREPQVYTLPPSREEMTKNQVSLTCLVKGFYPSDIAVEWESNGQPENNYKTTPMVLDSDGSFFLYSKLTVDKSRWQQGNVFSCSVMHEALHNHYTQKSLSLSP
light: DIVMTQSPATLSLSPGERATLSCTSSQSVYHANWLSWFQQKPGQPPKLLIYWASTLAYGVPSRFSGSGSGTDFTLTISSLQPEDAATYYCAGGYGGGRYAFGQGTKVEIKRTVAAPSVFIFPPSDEQLKSGTASVVCLLNNFYPREAKVQWKVDNALQSGNSQESVTEQDSKDSTYSLSSTLTLSKADYEKHKVYACEVTHQGLSSPVTKSFNRGEC
notes: CH with G236N/H268E/A330K/P396M against SG1 (EU numbering); also called MS1032LO06-MY101
In turn, B5 returned an equilibrium dissociation constant (Kd) in test [8] of 1100 nM.

These data come from patent US20200317768A1 (published 2020).
